In publication PMC4865869:

How the values were obtained:
[1] = biological target: Rap1 pre-loaded with mGppNHp (GDI assay) (Dictyostelium) (UniProt P18613); test: guanine nucleotide dissociation inhibition (GDI) assay; Rap1 or RasG pre-loaded with fluorescent mGppNHp, excess unlabeled GppNHp, with or without 1 uM RIP3^RBD; kobs of fluorescence decay; without effector kobs Rap1 5.0 x 10^-5 s^-1, RasG 5.9 x 10^-5 s^-1
[2] = biological target: constitutively active RasC mutant (RasC^CA, G62L) (Dictyostelium) (UniProt P32253); test: pull-down; GFP-FRB/Kin^TOR with active GST-fused GTPase (GppNHp-loaded or constitutively active mutant), 25 ug of each, 50 mM Tris-Cl, 150 mM NaCl, 5 mM MgCl2, 1 mM beta-mercaptoethanol, pH 7.5; GSH resin; washes with 500 mM NaCl; GFP and GST immunoblotting
[3] = biological target: GST-fused RasC (Dictyostelium) (UniProt P32253); test: as above

UniProt P18613, sequence (P18613 whole entry, the tested form may be a part): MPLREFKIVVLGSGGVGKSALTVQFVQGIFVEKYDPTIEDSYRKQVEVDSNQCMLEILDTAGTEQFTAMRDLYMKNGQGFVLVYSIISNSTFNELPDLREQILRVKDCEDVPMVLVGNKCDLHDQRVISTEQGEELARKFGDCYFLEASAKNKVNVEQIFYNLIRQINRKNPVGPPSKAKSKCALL

kobs of mGppNHp dissociation from Rap1 with 1 uM RIP3^RBD [1]	binding efficiency (percent) [2]	binding efficiency (percent) [3]	Substance
1e-07 s⁻¹	–	–	RIP3^RBD (aa 511-838) (domain or fragment)
–	9%	9%	GFP-fused TOR catalytic domain (FRB/Kin^TOR, aa 1820-2380) (from UniProt Q86C65 1820-2380) (domain or fragment)
